Where a SMILES comes first, the peptide text is derived from it. Bridges are numbered along the chain shown (N, C = ends). Side-chain parts run from the residue outwards. The star is where a group is joined. X1 = Nc1ccc2c(c1)Oc1cc(N)ccc1C21OC(=O)c2cc(C(=O)*)ccc21; Ahx = NCCCCCC(=O)O
How the values were obtained:
[1] = target: T1, ferroportin-hepcidin interaction (T-REx/FPN-V5 cells) (Homo sapiens, UniProt Q9NP59); assay: RhoG-hepcidin reversibility (washout) assay; assay type: cell-based; conditions: for IC50: cells treated 1 h, washed to remove unbound compound, then RhoG-hepcidin, N = 3, read-out: IC50 blocking RhoG-hepcidin binding/uptake after washout
T1 sequence (Q9NP59 1-571): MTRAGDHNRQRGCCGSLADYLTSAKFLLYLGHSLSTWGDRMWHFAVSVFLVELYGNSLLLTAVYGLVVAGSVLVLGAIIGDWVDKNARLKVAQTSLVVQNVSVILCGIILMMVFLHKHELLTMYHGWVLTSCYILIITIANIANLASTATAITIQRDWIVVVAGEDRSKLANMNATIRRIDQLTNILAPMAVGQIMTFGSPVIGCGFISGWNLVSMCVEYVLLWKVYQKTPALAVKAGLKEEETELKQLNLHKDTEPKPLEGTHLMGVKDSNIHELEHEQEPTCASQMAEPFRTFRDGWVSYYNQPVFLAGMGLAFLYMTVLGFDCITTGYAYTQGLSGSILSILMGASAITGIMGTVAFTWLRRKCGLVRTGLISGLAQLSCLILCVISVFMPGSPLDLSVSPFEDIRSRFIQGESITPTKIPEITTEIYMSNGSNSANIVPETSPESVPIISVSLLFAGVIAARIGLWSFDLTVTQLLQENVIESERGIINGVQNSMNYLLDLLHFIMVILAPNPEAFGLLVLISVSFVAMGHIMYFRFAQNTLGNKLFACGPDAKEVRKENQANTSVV
T1 sequence (P81172 60-84 partner): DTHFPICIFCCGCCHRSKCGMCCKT
Description: T-REx™/FPN-V5 cells plated in 96-well Packard ViewPlates at 50,000 cells/well and induced overnight as described for the BLA screening assay. […] As a control, cells were treated identically except that compound was not removed before addition of RhoG-hepcidin. Cells were fixed with 4% formaldehyde (Thermo Fisher) and stained with Hoechst nuclear dye. RhoG-Hepc uptake per cell was measured by cellular imaging.
(§1) In an effort to identify small molecule inhibitors of hepcidin-induced FPN internalization, we ran a small molecule screen using the cell-based iron response reporter assay described above. […] Molecules that prevented intracellular iron accumulation were further tested in the RhoG-hepcidin uptake and FPN internalization assays.
(A) T-REx™/FPN-V5 cells were induced overnight and treated with small molecules for 1 h prior to addition of RhoG-hepc for 2 h. Cells were fixed/permeabilized and stained with Ab 38G6; blue = nuclei, green = RhoG-hepcidin, red = FPN. Scale bar = 20 μm.
Reactivity with cell-based, folded FPN was assessed by the hepcidin uptake assay (Figure 9C); reactivity with the linear peptide was assessed by mass spectrometry (Figure 10A).

[2] = target: T1, ferroportin-hepcidin interaction (T-REx/FPN-V5 cells); assay: RhoG-hepcidin uptake assay; assay type: cell-based; conditions: compound 1 h prior to 250 nM RhoG-hepcidin for 1 h; read-out: IC50 inhibition of RhoG-hepcidin uptake
Excerpt: as §1

FPN (T-REx/FPN-V5 cells) = assay: RhoG-hepcidin binding and displacement at 0°C on FPN-expressing cells; assay type: cell-based, human; conditions: 2 h on ice, then 10X unlabeled hepcidin for 2 h on ice
Description: To verify this work, RhoG-hepcidin was incubated with either uninduced or induced cells at 0°C. Contrary to the previous report, RhoG-hepcidin bound to FPN at this low temperature. To assess the reversibility of hepcidin binding to FPN, we incubated FPN-expressing cells with RhoG-hepcidin at 0°C to prevent internalization; we then added excess unlabeled hepcidin to determine if the labeled hepcidin could be displaced. […] We confirmed that FPN was not internalized using antibody 45D8 (Figure 11A).
(A) T-REx™/FPN-V5 cells were allowed to equilibrate on ice for 15 min prior to addition of RhoG-hepcidin for 2 h on ice; 10X unlabeled hepcidin was added for 2 additional hours on ice. FPN was detected with Ab 45D8; scale bar = 20 μm. (B) Non-glycosylated FPN binds hepcidin and internalizes. T-REx™/FPN-V5 cells were treated ± 0.3 μg/ml tunicamycin (Tm) for 18 h, followed by treatment with 500 nM hepcidin (Hepc) for 5 h. Blot was probed with anti-V5 Ab for FPN detection and anti-cyclophilin as loading control. (C) Induced HEK-FPN-V5 cells were treated ± 0.25 μg/ml tunicamycin (Tm) for 18 h, followed by RhoG-hepcidin for 3 h; uptake was quantitated by cellular imaging (N = 4, mean ± sd).

[3] = target: ferroportin (T-REx/FPN-V5 cells) (Homo sapiens, UniProt Q9NP59); assay: cell-based
Description: Cells were plated in 96-well Poly-D-Lysine coated plates (BD) at 50,000 cells/well and induced overnight with 10 ng/ml doxycycline (Clontech). […] FPN staining was completed as described above except that the incubations were performed at room temperature. […] Nuclei were stained with Hoechst dye. Cell surface or total FPN or intracellular hepcidin was quantitated with cellular imaging. Uninduced (non-FPN-expressing) cells served as a negative control. Images were captured from Arrayscan™ VTI (Thermo Fisher) equipped with Zeiss microscope optics and Hamamatsu ORCA®-ER CCD camera. Images were captured with 10X or 20X objectives and analyzed with the Spot Detector bioapplication. A minimum of 300 cells per well were analyzed for each condition.
T-REx™/FPN-V5 were plated in 384-well Poly-D-Lysine coated plates (BD) at 15,000 cell/well and induced overnight as described for RhoG-hepcidin uptake assay. […] Plates were scanned on Thermo Fisher ArrayScan™ HCS Reader and analyzed with Spot Detector application. A minimum of 300 cells/well were analyzed.
Alanine mutant peptides were tested for activity in both BLA and ferroportin internalization assays.
Using these antibodies, it was possible to develop a quantitative cellular imaging assay that measured hepcidin-induced FPN internalization. […]

[4] = target: human ferroportin with V5 tag, on doxycycline-induced T-REx/FPN-V5 cells (human) (UniProt Q9NP59)
[5] = target: human ferroportin with V5 tag, on doxycycline-induced T-REx/FPN-V5 cells (human) (UniProt Q9NP59); remark: listed apart in the source
[6] = target: human ferroportin with V5 tag, on doxycycline-induced T-REx/FPN-V5 cells (human) (UniProt Q9NP59); remark: listed apart in the source
[7] = target: endogenous human ferroportin on T47D cells (human (endogenous in T47D)) (UniProt Q9NP59)

Row | Molecule | FPN internalization assay EC50 (surface FPN by cellular imaging, T-REx/FPN-V5 cells) [5] | Iron response assay EC50 (β-lactamase reporter under the ferritin IRE, T-REx/FPN-V5/IRE-BLA cells) [5] | other results
1 | O=S(=O)(c1ccc(Cl)cc1)c1cnc2ccccc2n1 [Compound 1, 2-[(4-chlorophenyl)sulfonyl]quinoxaline] | – | – | inhibition at 100 µM ([1]; 100 μM compound, 1 h, in cells, read-out: inhibition of hepcidin uptake): 100%; IC50 [1]: 0.1 µM; IC50 [2]: 141 nM
2 | CC[C@H](C)[C@@H]1NC(=O)[C@@H](NC(=O)[C@@H](NC(=O)[C@@H]2CCCN2C(=O)[C@H](Cc2ccccc2)NC(=O)[C@H](Cc2c[nH]cn2)NC(=O)[C@@H](NC(=O)[C@@H](N)CC(=O)O)[C@@H](C)O)[C@@H](C)CC)CSSC[C@@H](C(=O)N[C@@H](CCCCN)C(=O)N[C@H](C(=O)O)[C@@H](C)O)NC(=O)[C@@H]2CSSC[C@@H]3NC(=O)[C@@H]4CSSC[C@H](NC(=O)[C@H](Cc5ccccc5)NC1=O)C(=O)N[C@@H](CSSC[C@H](NC(=O)[C@H](CCCCN)NC(=O)[C@H](CCCCNC(=O)CCCCCNC(=O)c1ccc5c(c1)C(=O)OC51c5ccc(N)cc5Oc5cc(N)ccc51)NC(=O)[C@H](CCCNC(=N)N)NC(=O)[C@H](Cc1c[nH]cn1)NC3=O)C(=O)NCC(=O)N[C@@H](CCSC)C(=O)N2)C(=O)NCC(=O)N4 [RhoG-hepcidin, [Lys17(N^ε-Rhodamine green amino hexanoyl)]hepcidin] (H-DTHFPICIFCCGCCHRK([Ahx-X1])KCGMCCKT-OH; disulfide 7-23, 10-13, 11-19, 14-22 (inferred); C-terminus assumed) | – | – | reversibility of binding to FPN (FPN (T-REx/FPN-V5 cells)): reversible; EC50 [3]: ~30 nM
3 | NC(=O)CI [iodoacetamide, reference compound] | – | – | inhibition of hepcidin uptake ([1]; 100 μM compound, 1 h, in cells): ~ 50%; IC50 [1]: 86 µM
4 | [Lys17(N-epsilon-Rhodamine green amino hexanoyl)]hepcidin (peptide) | – | – | EC50 of FPN internalization, T-REx/FPN-V5 cells, 3 h, cellular imaging with Ab 38C8 [4]: 30 nM
5 | hepcidin D1A (peptide) | 185 nM | 144 nM | –
6 | hepcidin H3A (peptide) | 308 nM | 298 nM | –
7 | hepcidin I6A (peptide) | 247 nM | 634 nM | –
8 | hepcidin I8A (peptide) | > 3600 nM | > 3600 nM | –
9 | hepcidin K18A (peptide) | 12 nM | 13 nM | –
10 | hepcidin K24A (peptide) | 267 nM | 266 nM | –
11 | hepcidin M21A (peptide) | 162 nM | 112 nM | –
12 | hepcidin S17A (peptide) | 50 nM | 66 nM | –
13 | hepcidin T2A (peptide) | 29 nM | 29 nM | –
14 | hepcidin T25A (peptide) | 39 nM | 53 nM | –
15 | synthetic human hepcidin (wild type, unlabeled) (peptide) | 51 nM | 63 nM | EC50 of hepcidin-induced FPN internalization, T-REx/FPN-V5 cells, 6 h, surface FPN on live cells by cellular imaging with Ab 38C8 [6]: 11 nM; EC50 of hepcidin-induced FPN internalization, T47D cells, 6 h, surface FPN on live cells by cellular imaging with Ab 38C8 [7]: 13 nM

Now from value to molecule, other results behind:

Row | FPN internalization assay EC50 (surface FPN by cellular imaging, T-REx/FPN-V5 cells) [5] | Iron response assay EC50 (β-lactamase reporter under the ferritin IRE, T-REx/FPN-V5/IRE-BLA cells) [5] | Molecule | other results
16 | > 3600 nM | > 3600 nM | hepcidin F4A (peptide) | –
17 | 250 nM | 392 nM | hepcidin F9A (peptide) | –
18 | 212 nM | 107 nM | hepcidin G12A (peptide) | –
19 | 309 nM | 288 nM | hepcidin G20A (peptide) | –
20 | 10 nM | 12 nM | hepcidin H15A (peptide) | –
21 | 474 nM | 180 nM | hepcidin P5A (peptide) | –
22 | 56 nM | 57 nM | hepcidin R16A (peptide) | –

From article PMC5702341, “Identification of Antibody and Small Molecule Antagonists of Ferroportin-Hepcidin Interaction” (Frontiers in Pharmacology, 2017)
